B1: mAb 150 (Fab, V domains shown)
VH: QVQLVESGGGLIQPGGSLRLSCAASGVTVSSNYMSWVRQAPGKGLEWVSIIYSGGTTYYADSVKGRFTISRDSSMNTLYLQMNSLRAEDTAVYYCARDLMVYGIDVWGQGTTVTVSS
VL: EIVMTQSPSSLSASVGDRVTITCRASQGISSYLAWYQQKPGKAPKLLIYAASTLQSGVPSRFSGSGSGTDFTLTISSLQPEDFATYYCQQLDSYPPGYTFGQGTKVDIK
notes: source: from Dejnirattisai et al., 2021; human mAbs expressed in HEK293T cells
B2: mAb 88 (Fab, V domains shown)
VH: QLQLQESGPGLVKPSQTLSLTCTVSGGSISSGSYNWTWIRQPAGKGLEWIGRIYNSGSTNYNPSLKSRVTISVDTSKNQLSLKVRSVTAADTAVYYCARHCSGGTCYPKYYYGMDVWGQGTTVTVSS
VL: QSALTQPPSVSEAPRQRVTISCSGSSSNIGNNAVNWYQQFPGKAPKLLIYYDDLLPSGVSDRFSGSKSGTSASLAISGVQSEDEADYYCAAWDDSLNVVVFGGGTKLTVL
B3: chimera 253H/165L (Fab, V domains shown)
VH: not shown
VL: DIVMTQSPGTLSLSPGERATLSCRASQSVRSSYLAWYQQKPGQAPRLLIYGASRRGTGIPDRFSGSGSGTDFTLTISRLEPEDFAVYYCQQYGSSPWTFGQGTKVEIK
notes: also called 253-165; 353/165; source: from Dejnirattisai et al., 2021; human mAbs expressed in HEK293T cells

For three molecules, Kd results are on record in article PMC7901269 (Cell, 2021).

The assay has as its target His-tagged SARS-CoV-2 RBD (native RBD) (SARS-CoV-2, Wuhan (native RBD), UniProt P0DTC2). Put plainly: BLI. Conditions: both partners purified.
B1 showed an equilibrium dissociation constant (Kd) of 190 pM. The same measure for B2: 640 pM; for B3: 730 pM.
